Reference: paper PMC6770254
Values joined by “and” are separate entries in the source; they are usually repeats but may differ in a detail not shown here. Equal values may be shown once. Blank lines part the entries; values can stand above or below the substance they belong to.

How the values were obtained:
Assay in all cases: crystal structure; crystals from 2.2 M DL-malic acid, pH 6.5, with or without 5 mM PPi (hanging drop); data at 100 K; oligomers read from the asymmetric unit and the crystal packing
[1] = molecular target: Acinetobacter baumannii pyrophosphatase K30R variant (Acinetobacter baumannii) (UniProt V5VHL7)
[2] = molecular target: Acinetobacter baumannii pyrophosphatase K149R variant (Acinetobacter baumannii) (UniProt V5VHL7)
[3] = molecular target: Acinetobacter baumannii pyrophosphatase, wild type (Acinetobacter baumannii) (UniProt V5VHL7)

Substance: Acinetobacter baumannii pyrophosphatase K30R variant (from UniProt V5VHL7 5-174) (enzyme)
- stoichiometry N [1]: 6 and 3

Substance: Acinetobacter baumannii pyrophosphatase K149R variant (from UniProt V5VHL7 5-174) (enzyme)
- stoichiometry N [2]: 6

- stoichiometry N [3]: 6
Substance: Acinetobacter baumannii pyrophosphatase, wild type (from UniProt V5VHL7 5-174) (enzyme)
